In paper doi:10.1101/2021.09.12.459413:

Target: freshly isolated human LDL (human)
Assay: ELISA

Kd: 15 nM
B1: rabbit SAMD1 fragment from a.a. 238 to the C-terminus end at a.a. 550 (domain or fragment)
chain: QQPQPPPEGGAARAGGPARPVSLREVVRYLGGSSGAGGRLTRGRVQGLLEEEAAARGRLERTRLGALALPRGDRPGRAPPAASARAARNKRAGEERVLEKEEEEEEEEDDEDDDDDVVSEGSEVPESDRPAGAQHHQLNGGERGPQTAKERAKEWSLCGPHPGQEEGRGPAAGSGTRQVFSMAALSKEGGSASSTTGPDSPSPVPLPPGKPALPGADGTPFGCPAGRKEKPADPVEWTVMDVVEYFTEAGFPEQATAFQEQEIDGKSLLLMQRTDVLTGLSIRLGPALKIYEHHIKVLQQGHFEDDDPEGFLG
